“Also recorded” adds a separate entry of the source. No end group written: not given here.
Columns and labels:
HLA-A2402 = HLA-A2402 (Homo sapiens, UniProt P04439, D101N/D140Y/D185E/E176V/E190D/F33S/G103R/G107R/I119L/I121M/I306V/K335N/L105A/L180Q/L300P/N151K/N90K/Q86E/Q94H/R106L/R138H/R89G/T104I/T345S/V100E/W191G/Y123F); assay: HLA-A24 peptide binding assay of or7c1-derived peptides; settings: T2A24 cells, fluorescence of HLA-A24 antibody
Procedure: Cell line T2A24 for which HLA-A2402 had been gene-transferred to peptide transporter-deficient T2 cells was used in an assay, and experiment was carried out in the same way as in Experimental Example 16. In this Experimental Example, SL-8 was used as a negative control, and survivin-2B (SEQ ID No: 72) was used as a positive control.
The peptides below were prepared in the same way as in Experimental Example 26, and a binding assay was carried out.

[1] = tested on: T2A24 cells pulsed with peptide; assay: Cr51 cytotoxicity assay: SOX2 peptide-induced CTLs against peptide-pulsed T2A24; format: cell-based, human; settings: Cr51 release, 4 hours
Procedure: 50 mL of peripheral blood from HLA-A24-positive lung cancer patients who gave informed consent and HLA-A24-positive healthy subjects was centrifuged in a Ficoll-Conray density gradient, and peripheral blood mononuclear cells (PBMC) were separated and collected. Subsequently, lymphocytes of PBMC were separated into CD8-positive lymphocytes and CD8-negative lymphocytes using CD8 MACS beads.
In a 96 well plate, 200000 cells/well of CD8-negative lymphocytes and the above-mentioned HLA-A24 binding SOX2 peptide were mixed, and the mixture was allowed to stand at room temperature for 2 hours, and then subjected to a degree of 100 Gy radiation treatment. […] The peptide-specific reactivity of the induced CTLs was evaluated by a cytotoxicity assay or an ELISPOT assay.
Cr^51 was added to T2A24 cells, the cells were cultured in RPMI medium at 37° C. for 1 hour, radiolabeled, and washed with RPMI medium 4 times. […] Supernatant was then collected, and the gamma-ray dose was measured using a gamma counter.
The dose when only RPMI medium and peptide-pulsed T2A24 were cultured was defined as spontaneous release (SPR), the dose when cell lysate (2% NP40) and peptide-pulsed T2A24 were cultured was defined as maximum release (MXR), and cellular cytotoxicity was calculated as (measured value−SPR)/(MXR−SPR)×100.

[2] = tested on: T2A24 pulsed with peptide; assay: 51Cr release assay with CTLs and or7c1 peptide-pulsed T2A24; format: cell-based, human; settings: T2A24 pulsed with 5 μg/mL peptide, E/T ratios of 20 and 6
Procedure: PBMC was separated from whole blood (heparin added) sampled from a test subject using Lymphoprep (Nycomed). After PBMC was cultured at 37° C. for 24 hours, an experiment was carried out using non-adherent cells. In order to obtain CD8-positive cells from the non-adherent cells, CD8-positive and -negative cells were separated using a magnetic cell separation system (Miltenyi Biotech). For CD8-negative cells, 100 U/mL IL-2 and 1 μg/mL PHA-P were added to AIM-V medium (Life Technologies) to give PHA-blast. The CD8-positive cells were cultured in AIM-V medium at 37° C. and stimulated with ⅕ the amount of PHA-blast three times every 7 days (0th day, 7th day, 14th day). From the 8th day, 50 U/mL of IL-2 was added to the medium, and thereafter every 3 to 4 days the medium was exchanged, and 50 U/mL of IL-2 was added. The cells were subjected as CTLs to ELISPOT on the 21st day and a ^51Cr release assay on the 28th day.
In an assay for measuring cellular cytotoxicity, cells were labeled with radioactive ^51Cr, and cellular cytotoxicity by CTLs was measured. CTLs were used as effector cells, and T2A24, K562, Sw480, and Sw480 constitutively expressing or7c1 were used as target cells. […] Kill %=(measured release−spontaneous release)×100/(maximum release−spontaneous release)

FYGTGFGVYL (peptide fragment of OR7C1) [251(10)]
binding to HLA-A2402 (HLA-A2402): binding to HLA-A2402 was observed

HYTViMNPQL (HYTVIMNPQL; not fully specified (residue 5); printed as HYTViMNPQL) [131(10)]
binding to HLA-A2402 (HLA-A2402): binding to HLA-A2402 was observed

KYRPRRKTKTL [SOX2_109 peptide, KYRPRRKTKTL]
cellular cytotoxicity of CTLs against peptide-pulsed T2A24 [1]: strong radiation was detected; also recorded: extremely high level of cytotoxicity

MYLVTFTGNL (peptide fragment of OR7C1) [34(10)]
binding to HLA-A2402 (HLA-A2402): binding to HLA-A2402 was observed

MYTMVTPML (peptide fragment of OR7C1) [277(9)]
binding to HLA-A2402 (HLA-A2402): binding to HLA-A2402 was observed

RYLRDQQLLGI [HIV-derived peptide, reference compound]
cellular cytotoxicity of CTLs against peptide-pulsed T2A24 [1]: hardly any radiation due to damaged cells was detected

TYAGCLSQIF [93(10), TYAGCLSQIF]
cellular cytotoxicity (kill %) [2]: higher cellular cytotoxicity
